In publication PMC10928148 (Molecular Therapy, 2024):

Experiments:
[1] = target: T1, receptor binding domain of the SARS-CoV-2 (Wuhan) Spike protein with C-terminal 6xHis-tag (Severe acute respiratory syndrome …, UniProt P0DTC2); experiment: SPR; details: both partners purified
[2] = target: T2, receptor binding domain of the SARS-CoV-2 (Wuhan) Spike protein with C-terminal 6xHis-tag (SARS-CoV-2 (Wuhan), UniProt P0DTC2); experiment: cell-based or functional assay
[3] = target: T2, receptor binding domain of the …; experiment: SPR; details: both partners purified
[4] = target: T1, receptor binding domain of the …; experiment: SPR; details: both partners purified; remark: listed apart in the source

B1: COVA2-15 monomeric IgA1 (antibody, V domains shown)
VH: QVQLLESGGGLVQPGGSLRLSCAASGFTFSSYAMSWVRQAPGKGLEWASAISGSGGSTYYADSVEGRFTISRDNSKNTLYLQMNSLRAEDTAVYYCAKDTGYCGDDCYIKLIRGGPDYWGQGTLVTVSS
VL: DIVMTQSPLSLPVTLGQPASISCRSSQSLVYSDGNTFLNWFQQRPGQSPRRLIYQVSNRDSGVPDRFSGSGSGTDFTLKISRVEAEDVGVYYCMQGTHWPRTFGQGTKLEIK
- Kd [1]: 1.43 nM
- koff [1]: 0.00027 s⁻¹
- kon [1]: 231000 M⁻¹ s⁻¹

B2: COVA2-15 monomeric IgA1 (antibody, V domains shown)
VH: B1 VH
VL: B1 VL
- other [2]: 50 ng/mL

B3: COVA2-15 IgG (antibody, V domains shown)
VH: B1 VH
VL: B1 VL
- Kd [3]: 0.74 nM
- koff [3]: 0.00024 s⁻¹
- kon [3]: 333000 M⁻¹ s⁻¹
- other [2]: 50 ng/mL

B4: COVA2-15 monomeric IgA2 (antibody, V domains shown)
VH: B1 VH
VL: B1 VL
- Kd [1]: 1.67 nM
- koff [1]: 0.00035 s⁻¹
- kon [1]: 207000 M⁻¹ s⁻¹

B5: COVA2-15 secretory IgA1 (antibody, V domains shown)
VH: B1 VH
VL: B1 VL
- Kd [3]: 0.38 nM
- koff [3]: 0.00016 s⁻¹
- kon [3]: 423000 M⁻¹ s⁻¹
- other [2]: 13.5 ng/mL

B6: COVA2-15 monomeric IgA2 (antibody, V domains shown)
VH: B1 VH
VL: B1 VL
- other [2]: 50 ng/mL

B7: COVA2-15 secretory IgA2 (antibody, V domains shown)
VH: B1 VH
VL: B1 VL
- Kd [3]: 0.76 nM
- koff [3]: 0.00024 s⁻¹
- kon [3]: 326000 M⁻¹ s⁻¹
- other [2]: 13.5 ng/mL

B8: 2-15 monomeric IgA1 (antibody, V domains shown)
VH: QVQLVQSGAEVKKPGASVRVSCKASGYTFTGYYMHWVRQAPGQGLEWMGWINPISDGTNYAQKFQGWVTMTRDTSISTVYMELSRLRSDDTAVYYCARGGSRCSGGNCYGWAYDAFDIWGQGTMITVSS
VL: QSALTQPASVSGSPGQSITISCTGTSSDVGGYNFVSWYQQHPGKAPKLMIYDVSKRPSGVSNRFSGSKSGNTASLTISGLQAEDEADCYCSSYTSSSTFVFGTGTKVTVL
- Kd [4]: 3.75 nM

B9: 2-15 monomeric IgA2 (antibody, V domains shown)
VH: B8 VH
VL: B8 VL
- Kd [4]: 2.88 nM

B10: 2-15 IgG (antibody, V domains shown)
VH: B8 VH
VL: B8 VL
- Kd [4]: 1.16 nM
